Test results reported in patent publication US8487082B2, “Synthetic scFv analogue to the 6313/G2 (anti angiotensin II type 1 receptor) monoclonal antibody variable regions” (Queen Mary & Westfield College, priority 2008, dated 2013).
Read-outs that look alike come from different tables or passages of the source.

What was measured:
[1] = system: MCF7 cells
Experimental: Activation of caspases during apoptosis was determined using the Apo-ONE homogenous caspase-3/7 assay (Promega Corp, Southampton UK), according to the manufacturer's instructions. Briefly, cells were grown to 90% confluence and washed three times with sterile PBS. Cells were harvested using Trypsin/EDTA and counted. Cells (10^4 per well) were seeded into a 96 well plate and incubated with R6313/G2 at concentrations from 0.1 to 3 μM in the presence or absence of 100 nmol/L angiotensin II, total volume 150 μl, for 24 and 48 hours. After incubation, caspase-3/7 Z-DEVD-R110 substrate (100 μl) was added to each well. Blank wells contained reagent alone, and controls omitted the antibody and/or angiotensin II. Fluorescence was measured every 2 hours over an 8 hour period using a Fluostar Optima spectrofluorimeter (BMG Laboratories, Offenburg Germany), with an excitation wavelength of 485 nm and an emission wavelength of 535 nm.

[2] = Body weight, aldosterone and activity of hollow fiber mice; format: in vivo, nu/nu mice
[3] = Rat blood pressure (tail cuff); design: species or system Female Wistar rats; details: intact rats in vivo
Experimental: Rats were chosen for this part of the study in view of their greater tractability in blood pressure assays. Female Wistar rats were first acclimatised to handling and the blood pressure equipment for 4-5 days before experimentation. Blood pressure in the conscious animals was determined using a Kent Scientific Corporation (Torrington Conn., USA) Coda 6+ tail cuff system in which the animals were held in warmed restrainers while blood pressures were assessed. Animals were first stabilised and their basal blood pressure taken before treatment. They were then briefly removed from the restrainers for sc injection of R6313/G2, 0.4 mg/kg in sterile PBS (0.1 ml). Controls received PBS alone. Blood pressures were then taken at intervals over a period of 1 hour, before restoring to cages. The procedures were repeated daily for 3 days.

B1: R6313/G2: murine scFv analogue of the 6313/G2 anti-AT1 receptor monoclonal antibody variable domains, SEQ ID NO:15 (protein)
scFv: YAAQPAMAQVKLQQSGPELEKPGASVKISCKASGYSFTGYNMNWVKQSNGKSLEWIGNIDPYYGGTTYNQKFKGKATLTVDKSSSTAYMQLKSLTSEDSAVYYCAREVDYWGQGTTVTVSSGGGGSGGGGSGGGGSDIELTQSPASLAVSLGQRATISYRASKSVSTSGYSYMHWNQQKPGQPPRLLIYLVSNLESGVPARFSGSGSGTDFTLNIHPVEEEDAATYYCQHIRELTRSEGTKLEIKRAAAGAPVPY
modifications: 12D
caspase-3/7 activity ([1]; MCF7, R6313/G2 alone): reduced caspase-3/7 activity
caspase-3/7 activity ([1]; MCF7, in the presence of angiotensin II): dose dependently increased caspase-3/7 activity
animal activity ([2]; 13 nmol/kg 2× per day): no effect
body weight ([2]; 13 nmol/kg 2× per day): no effect
circulating aldosterone concentrations ([2]; 13 nmol/kg 2× per day): no effect
body weights of the experimental animals ([2]; hollow fiber mice, during the period of treatment): no changes
resting blood pressure [3]: does not reduce and may even increase resting blood pressure
stress-induced increases in blood pressure [3]: significantly inhibits the stress-induced increases in blood pressure
